Test results published in patent US20240190962A1 (IMMUNOWAKE, published 2024).
Residue numbers refer to the chain shown, from its start. In names and notes the source's numbering stands. Read-outs that look alike come from different tables or passages of the source.

T1: human IL-2 receptor (IL-2Rα, IL-2Rβ, IL-2Rγ) (human, UniProt P01589 22-272; P14784 27-551; P31785 23-369)
T1 sequence (looked up) 1: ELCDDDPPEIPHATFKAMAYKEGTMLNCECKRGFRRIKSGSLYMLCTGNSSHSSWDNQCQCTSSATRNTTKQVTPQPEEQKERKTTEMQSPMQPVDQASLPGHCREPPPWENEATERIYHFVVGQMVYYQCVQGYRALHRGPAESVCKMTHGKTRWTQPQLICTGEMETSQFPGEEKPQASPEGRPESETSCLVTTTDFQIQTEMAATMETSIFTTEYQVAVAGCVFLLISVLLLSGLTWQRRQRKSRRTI
T1 sequence (looked up) 2: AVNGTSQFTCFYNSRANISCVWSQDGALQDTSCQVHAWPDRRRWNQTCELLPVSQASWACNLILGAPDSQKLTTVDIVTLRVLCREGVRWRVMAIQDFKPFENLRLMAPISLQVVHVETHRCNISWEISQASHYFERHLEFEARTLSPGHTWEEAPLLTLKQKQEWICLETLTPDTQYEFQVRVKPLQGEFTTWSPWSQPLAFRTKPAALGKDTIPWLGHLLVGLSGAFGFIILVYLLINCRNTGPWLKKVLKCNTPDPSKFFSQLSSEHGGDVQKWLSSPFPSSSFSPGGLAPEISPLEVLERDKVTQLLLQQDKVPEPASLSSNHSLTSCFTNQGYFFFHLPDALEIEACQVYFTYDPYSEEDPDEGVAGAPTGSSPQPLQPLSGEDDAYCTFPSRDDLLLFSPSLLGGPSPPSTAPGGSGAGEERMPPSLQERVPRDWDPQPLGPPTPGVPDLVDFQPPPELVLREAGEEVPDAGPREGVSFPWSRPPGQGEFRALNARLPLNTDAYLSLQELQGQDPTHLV
T1 sequence (looked up) 3: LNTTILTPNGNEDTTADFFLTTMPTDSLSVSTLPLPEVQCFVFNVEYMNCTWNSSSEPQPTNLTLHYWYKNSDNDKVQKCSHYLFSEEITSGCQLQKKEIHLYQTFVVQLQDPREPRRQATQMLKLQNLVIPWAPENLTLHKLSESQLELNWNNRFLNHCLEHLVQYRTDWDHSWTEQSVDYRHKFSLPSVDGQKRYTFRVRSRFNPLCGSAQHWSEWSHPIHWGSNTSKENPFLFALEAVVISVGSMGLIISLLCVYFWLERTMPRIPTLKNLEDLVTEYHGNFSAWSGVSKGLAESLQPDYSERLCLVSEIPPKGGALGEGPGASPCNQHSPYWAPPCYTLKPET

B1: IL-2(L18R/Q22E/R38D/K43E/E61R)/IL-12(E59A/F60A)/PD-L1(mut2)-Fc (Fc fusion)
chain 1: FTVTVPKDLYVVEYGSNMTIECKFPVEKQLDLAALQVYWMMEDKNIIQFVHGEEDLKVQHSSYRQRARLLKDQLSLGNAALQITDVKLQDAGVYTCLIAYKGADYKRITVKVNAPYNKINQRILVVDPVTSEHELTCQAEGYPKAEVIWTSSDHQVLSGKTTTTNSKREEKLFNVTSTLRINTTTNEIFYCTFRRLDPEENHTAELVIPELPLAHPPNERGGGGSGGGIWELKKDVYVVELDWYPDAPGEMVVLTCDTPEEDGITWTLDQSSEVLGSGKTLTIQVKAAGDAGQYTCHKGGEVLSHSLLLLHKKEDGIWSTDILKDQKEPKNKTFLRCEAKNYSGRFTCWWLTTISTDLTFSVKSSRGSSDPQGVTCGAATLSAERVRGDNKEYEYSVECQEDSACPAAEESLPIEVMVDAVHKLKYENYTSSFFIRDIIKPDPPKNLQLKPLKNSRQVEVSWEYPDTWSTPHSYFSLTFCVQVQGKSKREKKDRVFTDKTSATVICRKNASISVRAQDRYYSSSWSEWASVPCSGGGGSGGGSGGGGSRNLPVATPDPGMFPCLHHSQNLLRAVSNMLQKARQTLEFYPCTSEEIDHEDITKDKTSTVEACLPLELTKNESCLNSRETSFITNGSCLASRKTSFMMALCLSSIYEDLKMYQVEFKTMNAKLLMDPKRQIFLDQNMLAVIDELMQALNFNSETVPQKSSLEEPDFYKTKIKLCILLHAFRIRAVTIDRVMSYLNASGGGGSGGGDKTHTCPPCPAPEDEGGPSVFLFPPKPKDTLMISRTPEVTCVVVDVSHEDPEVKFNWYVDGVEVHNAKTKPREEQYNSTYRVVSVLTVLHQDWLNGKEYKCKVSNKALPAPIEKTISKAKGQPREPQVYVYPPSREEMTKNQVSLTCLVKGFYPSDIAVEWESNGQPENNYKTTPPVLDEDGSFALVSKLTVDKSRWQQGNVFSCSVMHEALHNHYTQKSLSLSPGK
chain 2: FTVTVPKDLYVVEYGSNMTIECKFPVEKQLDLAALQVYWMMEDKNIIQFVHGEEDLKVQHSSYRQRARLLKDQLSLGNAALQITDVKLQDAGVYTCLIAYKGADYKRITVKVNAPYNKINQRILVVDPVTSEHELTCQAEGYPKAEVIWTSSDHQVLSGKTTTTNSKREEKLFNVTSTLRINTTTNEIFYCTFRRLDPEENHTAELVIPELPLAHPPNERGGGSGAPTSSSTKKTQLQLEHLRLDLEMILNGINNYKNPKLTDMLTFEFYMPKKATELKHLQCLERELKPLEEVLNLAQSKNFHLRPRDLISNINVIVLELKGSETTFMCEYADETATIVEFLNRWITFCQSIISTLTGGGGSGGGDKTHTCPPCPAPEKKGGPSVFLFPPKPKDTLMISRTPEVTCVVVDVSHEDPEVKFNWYVDGVEVHNAKTKPREEQYNSTYRVVSVLTVLHQDWLNGKEYKCKVSNKALPAPIEKTISKAKGQPREPQVYVLPPSREEMTKNQVSLLCLVKGFYPSDIAVEWESNGQPENRYMTWPPVLDSDGSFFLYSKLTVDKSRWQQGNVFSCSVMHEALHNHYTQKSLSLSPGK
B2: IL-2(R38D/K43E/E61R/Q126T)/IL-12(E59A/F60A)/PD-L1(mut2)-Fc (Fc fusion)
chain 1: B1 chain 1
chain 2: B1 chain 2 with R243L, E247Q, Q351T
B3: PD-L1(mut2)-Fc (Fc fusion)
chain 1: FTVTVPKDLYVVEYGSNMTIECKFPVEKQLDLAALQVYWMMEDKNIIQFVHGEEDLKVQHSSYRQRARLLKDQLSLGNAALQITDVKLQDAGVYTCLIAYKGADYKRITVKVNAPYNKINQRILVVDPVTSEHELTCQAEGYPKAEVIWTSSDHQVLSGKTTTTNSKREEKLFNVTSTLRINTTTNEIFYCTFRRLDPEENHTAELVIPELPLAHPPNERGGGGSGGGDKTHTCPPCPAPEDEGGPSVFLFPPKPKDTLMISRTPEVTCVVVDVSHEDPEVKFNWYVDGVEVHNAKTKPREEQYNSTYRVVSVLTVLHQDWLNGKEYKCKVSNKALPAPIEKTISKAKGQPREPQVYVYPPSREEMTKNQVSLTCLVKGFYPSDIAVEWESNGQPENNYKTTPPVLDEDGSFALVSKLTVDKSRWQQGNVFSCSVMHEALHNHYTQKSLSLSPGK
chain 2: B3 chain 1 with D242K, E243K, Y359L, T374L, N398R, K400M, T402W, E408S, A413F, V415Y
B4: IL-2(L18R/Q22E/R38D/K43E/E61R/Q126T)/PD-L1(mut2)-Fc (Fc fusion)
chain 1: B3 chain 1
chain 2: B1 chain 2 with Q351T
B5: IL-2(R38D/K43E/E61R)/PD-L1(mut2)-Fc (Fc fusion)
chain 1: B3 chain 1
chain 2: B1 chain 2 with R243L, E247Q
B6: IL-2(L18R/Q22E/R38D/K43E/E61R/Q126T/S130R)/PD-L1(mut2)-Fc (Fc fusion)
chain 1: B3 chain 1
chain 2: B1 chain 2 with Q351T, S355R
B7: IL-12(E59A/F60A)/PD-L1(mut2)-Fc (Fc fusion)
chain 1: B1 chain 1
chain 2: B3 chain 1 with D242K, E243K, Y359L, T374L, N398R, K400M, T402W, E408S, A413F, V415Y
B8: IL-2(R38D/K43E/E61R/Q126T)/PD-L1(mut2)-Fc (Fc fusion)
chain 1: B3 chain 1
chain 2: B1 chain 2 with R243L, E247Q, Q351T
B9: IL-2(L18R/Q22E/R38D/K43E/E61R)/PD-L1(mut2)-Fc (Fc fusion)
chain 1: B3 chain 1
chain 2: B1 chain 2

Columns and labels:
Experiment in all cases: cell-based or functional assay
[1] = molecular target: T1, human IL-2 receptor (IL-2Rα, IL-2Rβ, …)
[2] = molecular target: human IL-12 receptor complex (IL-12Rβ1, IL-12Rβ2) (human, UniProt P42701 24-662; Q99665 24-862)
Chain of human IL-12 receptor complex (IL-12Rβ1, IL-12Rβ2) (Q99665 24-862, chain 2 of 2, other chains not shown): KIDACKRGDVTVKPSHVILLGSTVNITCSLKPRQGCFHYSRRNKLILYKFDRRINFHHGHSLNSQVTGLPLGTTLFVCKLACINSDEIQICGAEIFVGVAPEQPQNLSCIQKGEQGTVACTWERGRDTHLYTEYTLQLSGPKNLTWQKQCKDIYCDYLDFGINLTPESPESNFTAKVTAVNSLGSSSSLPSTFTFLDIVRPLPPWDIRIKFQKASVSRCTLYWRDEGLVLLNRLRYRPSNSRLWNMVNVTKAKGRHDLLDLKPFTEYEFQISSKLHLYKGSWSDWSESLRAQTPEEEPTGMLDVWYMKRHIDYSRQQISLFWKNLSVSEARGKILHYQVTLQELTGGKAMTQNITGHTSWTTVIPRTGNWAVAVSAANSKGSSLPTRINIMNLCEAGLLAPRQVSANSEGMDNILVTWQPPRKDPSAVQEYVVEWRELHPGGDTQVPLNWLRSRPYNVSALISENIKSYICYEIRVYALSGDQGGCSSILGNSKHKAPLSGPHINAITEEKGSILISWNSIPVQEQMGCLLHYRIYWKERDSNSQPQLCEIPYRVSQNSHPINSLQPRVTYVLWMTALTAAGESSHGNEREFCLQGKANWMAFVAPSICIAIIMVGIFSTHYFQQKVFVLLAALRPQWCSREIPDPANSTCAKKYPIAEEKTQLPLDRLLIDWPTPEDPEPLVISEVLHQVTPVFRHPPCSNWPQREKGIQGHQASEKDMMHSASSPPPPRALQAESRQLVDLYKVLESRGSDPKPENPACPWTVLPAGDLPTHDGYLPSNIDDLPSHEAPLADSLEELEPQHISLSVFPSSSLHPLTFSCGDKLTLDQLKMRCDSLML

[3] = molecular target: T1, human IL-2 receptor (IL-2Rα, IL-2Rβ, …); remark: listed apart in the source

| Binder | IL-2 biological activity, HEK-IL-2 [1] | IL-2 biological activity, HEK-IL-2-PD-1 [1] | IL-12 biological activity, HEK-IL-12 [2] | IL-12 biological activity, HEK-IL-12-PD-1 [2] | IL-2 biological activity, HEK-IL-2 [3] | IL-2 biological activity, HEK-IL-2-PD-1 [3] |
| --- | --- | --- | --- | --- | --- | --- |
| B1 | 4% | 35% | < 0.2% | 19% |  |  |
| B2 | 2% | 20% | < 0.2% | 25% |  |  |
| B3 |  |  |  |  | < 0.1% | < 0.1% |
| B4 |  |  |  |  | < 0.1% | 5% |
| B5 |  |  |  |  | 16% | 76% |
| B6 |  |  |  |  | < 0.1% | < 0.1% |
| B7 | < 0.1% | < 0.1% | < 0.2% | 24% |  |  |
| B8 |  |  |  |  | 2% | 20% |
| B9 |  |  |  |  | 4% | 35% |
